Three molecules from patent publication US20150218281A1 (Ablynx, published 2015) can be followed below.

For assay [1], the target named is T1, full length human OX40L expressed on CHO cells (human, UniProt P23510 1-183).
T1 sequence: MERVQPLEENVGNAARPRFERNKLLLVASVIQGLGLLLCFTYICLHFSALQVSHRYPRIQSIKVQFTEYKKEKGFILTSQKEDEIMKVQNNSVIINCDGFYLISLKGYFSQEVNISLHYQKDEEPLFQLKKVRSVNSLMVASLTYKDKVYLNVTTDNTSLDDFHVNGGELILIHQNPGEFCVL
In words: cell-based or functional assay.

The target in assay [2] is T1, full length human OX40L expressed on …. Description: competition FACS with hOX40/Fc on CHO-hOX40L. On the procedure: The competition FACS assay was performed as described in example 2.
For assay [3], the target named is T2, recombinant human OX40L (extracellular domain, R&D Systems) (human, UniProt P23510 51-183).
T2 construct: also called hOX40L; rec. hOX40L
T2 sequence: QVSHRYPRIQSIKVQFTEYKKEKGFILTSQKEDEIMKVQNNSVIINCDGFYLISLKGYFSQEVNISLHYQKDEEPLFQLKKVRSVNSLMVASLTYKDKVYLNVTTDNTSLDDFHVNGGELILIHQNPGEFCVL
Description: SPR, after second injection of buffer HBS-EP+. How it is done:
(§1) In addition, it was investigated to what extend the 7 anti-OX40L Nanobodies have a different or identical or overlapping epitope. Standard conditions were as described above. […] 1300 RU. A dual injection was performed at 10 μl/min for 2 min, starting with 500 nM of the first Nanobody, followed by 500 nM of the second Nanobody. After 10 min dissociation, regeneration of the surface was performed by injection of 50 mM NaOH for 5-20 sec at 100 μl/min.
For orientation: SPR reads the build-up and loss of mass on a sensor chip optically.

In assay [4] the target is T1, full length human OX40L expressed on …. In words: FACS binding to CHO cells, anti-c-myc detection. How it is done: (§2) Transfection of CHO K1 with the respective expression plasmid DNA and selection of clones with high expression levels was performed as described in Example 1. Binding of the Nanobodies to the cell surface expressed OX40L was assessed by FACS analysis of cells as described below.
(§3) After washing bound Nanobodies were detected in FACSArray™ using mouse anti-c-myc and PE conjugated goat anti-mouse IgG.
In general terms: Flow cytometry measures light scatter and fluorescence of single cells or particles in a stream.

Assay [5] addresses T3, cynomolgus OX40L expressed on CHO cells (cynomolgus monkey, UniProt P23510 1-183 (human entry)).
T3 construct: also called cynoOX40L; CHO-cynoOX40L
T3 chain: T1 sequence with R55Q, K73E
In words: FACS binding to CHO cells, anti-c-myc detection. How it is done:
as §2, §3

In assay [6] the target is T2, recombinant human OX40L (extracellular …). Description: SPR, second injection after competitor OX40L01B11. How it is done:
as §1

The target is the same in assay [7]. In words: SPR, second injection after competitor OX40L01E07. On the procedure:
as §1

Assay [8] shares this target. In words: SPR, second injection after competitor OX40L01E10. How it is done:
as §1

The target is the same in assay [9]. In words: SPR, second injection after competitor OX40L15B07. How it is done:
as §1

Assay [10] shares this target. Description: SPR, second injection after competitor OX40L18E09. On the procedure:
as §1

Assay [11] has the same target. In words: SPR, second injection after competitor OX40L19A07. On the procedure: as §1
For assay [12] the target is unchanged. Description: SPR, second injection after competitor OX40L19D08. On the procedure: as §1
The target in assay [13] is T4, biotinylated hOX40L (R&D Systems, biotinylated in house) (human, UniProt P23510 51-183, biotinylated with Sulfo-NHS-LC-Biotin, sites not stated).
T4 construct: same bought protein as m10, biotinylated; also called biotinylated OX40L
T4 sequence: T2 sequence
Description: AlphaScreen, 31 pM biotinylated hOX40L + 80 pM OX40/Fc. How it is done:
(§4) Next, streptavidin donor beads were added and incubated for an additional 1 hour. Fluorescence was measured by reading plates on the EnVision Multilabel Plate Reader using an excitation wavelength of 680 nm and an emission wavelength of 520 nm.
(In general: Bead proximity is the source of the signal in Alpha formats.)

The target in another assay is hTNF-alpha (human, UniProt P01375 77-233). Description: competition ELISA on neutravidin captured biotinylated hOX40L. On the procedure:
(§5) The binding of OX40L blocking Nanobodies to other TNF family members was tested in a competition ELISA.
(§6) Detection was done using sTMB (SDT Reagents, Baesweiler, Germany), the reaction was stopped with 1M HCl and absorbance was determined at 450 nm.

The target in a further assay is T5, hCD40L (human, UniProt P29965 113-261).
T5 sequence (looked up): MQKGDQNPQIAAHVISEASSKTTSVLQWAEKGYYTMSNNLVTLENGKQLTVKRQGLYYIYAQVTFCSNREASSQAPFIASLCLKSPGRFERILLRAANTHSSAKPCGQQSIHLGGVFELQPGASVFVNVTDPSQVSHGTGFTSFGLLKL
The description is as above. On the procedure:
as §5, §6

Another assay has as its target T6, hCD30L (human, UniProt P32971 63-234).
T6 sequence (looked up): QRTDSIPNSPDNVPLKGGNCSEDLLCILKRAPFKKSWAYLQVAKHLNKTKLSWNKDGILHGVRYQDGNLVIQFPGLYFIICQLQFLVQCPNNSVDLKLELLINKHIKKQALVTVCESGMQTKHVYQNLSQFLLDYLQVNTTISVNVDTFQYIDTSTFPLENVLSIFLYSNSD
The assay is described as above. How it is done: as §5, §6

The target in assay [14] is T7, human Receptor Activator for Nuclear Factor kappa B Ligand (human, UniProt O14788 143-317, limits assumed).
T7 construct: also called hRANKL; RANKL
T7 sequence (looked up): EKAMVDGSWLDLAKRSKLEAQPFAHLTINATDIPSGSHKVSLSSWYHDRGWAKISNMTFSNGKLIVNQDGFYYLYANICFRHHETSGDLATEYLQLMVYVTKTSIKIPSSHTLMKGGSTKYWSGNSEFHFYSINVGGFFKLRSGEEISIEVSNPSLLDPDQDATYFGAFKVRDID
The description is as above. How it is done: as §5, §6

In assay [15] the target is T8, human tumor necrosis factor-related apoptosis inducing ligand (human, UniProt P50591 114-281).
T8 construct: also called hTRAIL; TRAIL
The assay is described as above. How it is done: as §5, §6

Assay [16] addresses T4, biotinylated hOX40L (R&D Systems, …). Description: AlphaScreen, 120 pM biotinylated hOX40L + 0.2 nM hOX40/Fc. On the procedure: as §4
Assay [17] addresses T1, full length human OX40L expressed on …. Description: competition FACS, 3.1 nM hOX40/Fc on hOX40L expressing cells.
The target of assay [18] is T4, biotinylated hOX40L (R&D Systems, …). Description: hOX40L/hOX40 AlphaScreen.

Changes are numbered by the printed parent chain.

T8 sequence (P50591 114-281 limits assumed): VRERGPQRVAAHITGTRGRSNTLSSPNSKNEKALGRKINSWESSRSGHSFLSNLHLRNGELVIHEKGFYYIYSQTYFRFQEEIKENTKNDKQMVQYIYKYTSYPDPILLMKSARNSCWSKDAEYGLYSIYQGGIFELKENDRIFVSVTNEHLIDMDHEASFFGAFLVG
Chain of hTNF-alpha (P01375 77-233 limits assumed): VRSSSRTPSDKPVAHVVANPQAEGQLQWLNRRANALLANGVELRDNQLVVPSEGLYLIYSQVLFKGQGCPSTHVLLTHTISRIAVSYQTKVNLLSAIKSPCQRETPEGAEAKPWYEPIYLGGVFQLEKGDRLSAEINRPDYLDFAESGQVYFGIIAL

B1: OX40L19A07 (VHH)
VHH: EVQLVESGGGLVQAGGSLRLSCAASGFTLDDYAIAWFRQAPGKEREGVSRIKISNGRTTYAGSVKGRFTISSDNAKNTVYLQMNSLNAEDTAVYYCAADRSSLLFGSNWDRKARYDYWGQGTQVTVSS
notes: monovalent Nanobody from E. coli; not shown: C-terminal c-myc and His6 tag
Broadly, the IC50 is the point on the concentration scale where inhibition reaches its midpoint. For orientation: EC50 means the midpoint of the concentration-response curve. A higher EC50 goes with lower potency in that assay. In the case of B1, the “IC50, IL4 production, T-cell activation assay, donor 1” value in assay [1] came out at 596 nM. Moreover, the “IC50, IL4 production, T-cell activation assay, donor 2” value in assay [1] turned out to be 618 nM. In addition, the IC50 in assay [2] was 13 nM; in [13], 0.355 nM; in assay [16], 0.54 nM; in assay [17], 16.6 nM. The “Binding Level sample 2 (RU)” value in [3] is 160 RU; in assay [6] it was 371 RU; in [7] it was 179 RU; in [8] it was 239 RU; in [9], 207 RU; in assay [10], 194 RU. Also, the “Binding Level sample 2 (RU)” value was found to be 183 RU in assay [11] and 205 RU in assay [12]. Moreover, the “Binding Level sample 2 - sample 1 (RU)” value in assay [3] was -15 RU; in assay [6], 70 RU; in assay [7] it was -3 RU; in assay [8], 12 RU; in assay [9], 9 RU; in assay [10], 2 RU. Besides, the “Binding Level sample 2 - sample 1 (RU)” value in [11] is 6 RU; in assay [12] it was -24 RU. Further, the EC50 in assay [4] is 5.67 nM; in [5] it was 5.34 nM. Moreover, the binding result (in the assay with hTNF-alpha; in the assay with hCD40L; with hCD30L; in [14]; in assay [15]) was “no binding (tested: starting from 100 fold molar excess)” in each case.

B2: OX40L083 (VHH, not shown: small tags and cut ends)
VHH: EVQLVESGGGLVQPGGSLRLSCAASRSIGRLDRMGWYRHRPGKPRELVATITGGSSINYGDSVKGRFTISIDNSKNTVYLQMNSLRPEDTAVYYCNFNKYVTSRDTWGQGTLVTVSS
Regarding B2, the “fold drop in potency compared with the parental Nanobody OX40L15B07” value in [18] was around 6 fold.

B3: OX40L19D08 (VHH)
VHH: EVQLVESGGGLVQAGASLRLSCAASGRRFISNYAMGWFRQAPGQERAFVAAISRSGSITYYTDSVKGRFSISRDYAKSTVYLQMDNLKPEDTAVYYCAADGGAVRDLTTNLPDYWGRGTQVTVSS
notes: as for B1
Turning to B3, the “IC50, IL4 production, T-cell activation assay, donor 1” value in assay [1] amounted to 90 nM. For the same molecule, in assay [1], the “IC50, IL4 production, T-cell activation assay, donor 2” value was 132 nM. Also, the “IC50, IL4 production, T-cell activation assay, donor 3” value in assay [1] stood at 36 nM. Besides, the “IC50, IL4 production, T-cell activation assay, donor 4” value in assay [1] came to 96 nM. The IC50 in assay [2] was found to be 4 nM; in [13], 0.133 nM; in [16], 0.285 nM; in [17] it was 3.31 nM. For the same molecule, the “Binding Level sample 2 (RU)” value in [3] stood at 184 RU; in assay [6] it was 468 RU; in [7], 187 RU; in assay [8] it was 275 RU; in assay [9], 239 RU; in [10], 224 RU. Moreover, the “Binding Level sample 2 (RU)” value worked out at 224 RU in assay [11] and 236 RU in [12]. The “Binding Level sample 2 - sample 1 (RU)” value in assay [3] is -38 RU; in assay [6], 159 RU; in assay [7], 3 RU; in [8], 49 RU; in [9] it was 42 RU; in [10], 33 RU. In addition, the “Binding Level sample 2 - sample 1 (RU)” value amounted to 47 RU in assay [11] and 7 RU in assay [12]. Also, the EC50 in assay [4] worked out at 2.85 nM; in assay [5] it was 3.4 nM. Besides, the binding result (in the assay with hTNF-alpha; in the assay with hCD40L; in the assay with hCD30L; in assay [14]; in [15]) was “no binding (tested: starting from 100 fold molar excess)” throughout.
